Test results reported in patent US20200317779A1.
Where a chain is given by its changes, count along the chain named.

B1: C02 (antibody, human IgG1, lambda, L234A L235A, V domains shown)
VH: EVQLVESGGGLVQPGGSLKLSCAASGFTFNTYAMNWVRQASGKGLEWVGRIRSKYNNYATYYADSVKDRFTISRDDSQSTAYLQMNSLKTEDTAVYYCVRHGNFGNSYVSWFAYWGQGTLVTVSS
VL: QAVVTQEPSLTVSPGGTVTLTCRSSTGAVTTSNYANWFQQKPGQAPRTLIYGTNKRAPWTPARFSGSLLGDKAALTLSGAQPEDEAEYYCALWYSNLWVFGGGTKLTVLG
B2: D12 (antibody, human IgG1, lambda, L234A L235A, V domains shown)
VH: B1 VH with A81L
VL: B1 VL with F38V, Y51G
B3: C05 (antibody, human IgG1, lambda, L234A L235A, V domains shown)
VH: B1 VH
VL: B1 VL with T48G, D71G
B4: E10 (antibody, human IgG1, lambda, L234A L235A, V domains shown)
VH: B1 VH with G49A, Q78K, S79N
VL: B1 VL with F38V
B5: C04 (antibody, human IgG1, lambda, L234A L235A, V domains shown)
VH: B1 VH
VL: B1 VL with Y51G
B6: D14 (antibody, human IgG1, lambda, L234A L235A, V domains shown)
VH: B1 VH with A81L
VL: B1 VL with F38V, T48G
B7: E03 (antibody, human IgG1, lambda, L234A L235A, V domains shown)
VH: B1 VH with G49A, Q78K, S79N
VL: B1 VL with Y51G, D71G
B8: D06 (antibody, human IgG1, lambda, L234A L235A, V domains shown)
VH: B1 VH with A81L
VL: B1 VL with T48G
B9: D10 (antibody, human IgG1, lambda, L234A L235A, V domains shown)
VH: B1 VH with A81L
VL: B1 VL with F38V
B10: A04 (antibody, human IgG1, lambda, L234A L235A, V domains shown)
VH: B1 VH with Q78K, S79N
VL: B1 VL with Y51G
B11: C14 (antibody, human IgG1, lambda, L234A L235A, V domains shown)
VH: B1 VH
VL: B1 VL with F38V, T48G
B12: D02 (antibody, human IgG1, lambda, L234A L235A, V domains shown)
VH: B1 VH with A81L
VL: B1 VL
B13: C06 (antibody, human IgG1, lambda, L234A L235A, V domains shown)
VH: B1 VH
VL: B1 VL with T48G
B14: C11 (antibody, human IgG1, lambda, L234A L235A, V domains shown)
VH: B1 VH
VL: B1 VL with F38V, Y51G, D71G
B15: D01 (antibody, human IgG1, lambda, L234A L235A, V domains shown)
VH: B1 VH with A81L
VL: B1 VL with D71G
B16: E04 (antibody, human IgG1, lambda, L234A L235A, V domains shown)
VH: B1 VH with G49A, Q78K, S79N
VL: B1 VL with Y51G
B17: E11 (antibody, human IgG1, lambda, L234A L235A, V domains shown)
VH: B1 VH with G49A, Q78K, S79N
VL: B1 VL with F38V, Y51G, D71G
B18: C10 (antibody, human IgG1, lambda, L234A L235A, V domains shown)
VH: B1 VH
VL: B1 VL with F38V
B19: C13 (antibody, human IgG1, lambda, L234A L235A, V domains shown)
VH: B1 VH
VL: B1 VL with F38V, T48G, D71G
B20: E02 (antibody, human IgG1, lambda, L234A L235A, V domains shown)
VH: B1 VH with G49A, Q78K, S79N
VL: B1 VL
B21: A06 (antibody, human IgG1, lambda, L234A L235A, V domains shown)
VH: B1 VH with Q78K, S79N
VL: B1 VL with T48G
B22: C12 (antibody, human IgG1, lambda, L234A L235A, V domains shown)
VH: B1 VH
VL: B1 VL with F38V, Y51G
B23: D13 (antibody, human IgG1, lambda, L234A L235A, V domains shown)
VH: B1 VH with A81L
VL: B1 VL with F38V, T48G, D71G
B24: E01 (antibody, human IgG1, lambda, L234A L235A, V domains shown)
VH: B1 VH with G49A, Q78K, S79N
VL: B1 VL with D71G
B25: D11 (antibody, human IgG1, lambda, L234A L235A, V domains shown)
VH: B1 VH with A81L
VL: B1 VL with F38V, Y51G, D71G
B26: D09 (antibody, human IgG1, lambda, L234A L235A, V domains shown)
VH: B1 VH with A81L
VL: B1 VL with F38V, D71G
B27: E05 (antibody, human IgG1, lambda, L234A L235A, V domains shown)
VH: B1 VH with G49A, Q78K, S79N
VL: B1 VL with T48G, D71G
B28: D03 (antibody, human IgG1, lambda, L234A L235A, V domains shown)
VH: B1 VH with A81L
VL: B1 VL with Y51G, D71G
B29: C03 (antibody, human IgG1, lambda, L234A L235A, V domains shown)
VH: B1 VH
VL: B1 VL with Y51G, D71G
B30: A05 (antibody, human IgG1, lambda, L234A L235A, V domains shown)
VH: B1 VH with Q78K, S79N
VL: B1 VL with T48G, D71G
B31: D05 (antibody, human IgG1, lambda, L234A L235A, V domains shown)
VH: B1 VH with A81L
VL: B1 VL with T48G, D71G
B32: E06 (antibody, human IgG1, lambda, L234A L235A, V domains shown)
VH: B1 VH with G49A, Q78K, S79N
VL: B1 VL with T48G
B33: E12 (antibody, human IgG1, lambda, L234A L235A, V domains shown)
VH: B1 VH with G49A, Q78K, S79N
VL: B1 VL with F38V, Y51G
B34: E09 (antibody, human IgG1, lambda, L234A L235A, V domains shown)
VH: B1 VH with G49A, Q78K, S79N
VL: B1 VL with F38V, D71G
B35: E08 (antibody, human IgG1, lambda, L234A L235A, V domains shown)
VH: B1 VH with G49A, Q78K, S79N
VL: B1 VL with T48G, Y51G
B36: E14 (antibody, human IgG1, lambda, L234A L235A, V domains shown)
VH: B1 VH with G49A, Q78K, S79N
VL: B1 VL with F38V, T48G
B37: D04 (antibody, human IgG1, lambda, L234A L235A, V domains shown)
VH: B1 VH with A81L
VL: B1 VL with Y51G
B38: E07 (antibody, human IgG1, lambda, L234A L235A, V domains shown)
VH: B1 VH with G49A, Q78K, S79N
VL: B1 VL with T48G, Y51G, D71G
B39: E13 (antibody, human IgG1, lambda, L234A L235A, V domains shown)
VH: B1 VH with G49A, Q78K, S79N
VL: B1 VL with F38V, T48G, D71G
B40: A01 (antibody, human IgG1, lambda, L234A L235A, V domains shown)
VH: B1 VH with Q78K, S79N
VL: B1 VL with D71G
B41: C09 (antibody, human IgG1, lambda, L234A L235A, V domains shown)
VH: B1 VH
VL: B1 VL with F38V, D71G

The binders below were run against recombinant human CD3ε/δ heterodimer (human) (UniProt P07766) (assay: ELISA, coated CD3ε/δ).
Sequence of recombinant human CD3ε/δ heterodimer (human) (P07766 23-126, stated change not applied, chain 1 of 2): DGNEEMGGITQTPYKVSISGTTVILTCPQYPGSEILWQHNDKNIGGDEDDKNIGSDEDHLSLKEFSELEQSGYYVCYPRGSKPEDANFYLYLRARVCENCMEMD
Sequence of recombinant human CD3ε/δ heterodimer (human) (P04234 22-105, stated change not applied, chain 2 of 2, further chain): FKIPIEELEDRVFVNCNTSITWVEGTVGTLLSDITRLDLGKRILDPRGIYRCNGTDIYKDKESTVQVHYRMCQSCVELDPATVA

Absorbance (450 nm)	Binder
0.099	B1
0.095	B2
0.107	B3
0.083	B4
0.093	B5
0.149	B6
0.134	B7
0.136	B8
0.117	B9
0.098	B10
0.107	B11
0.15	B12
0.108	B13
0.288	B14
0.136	B15
0.087	B16
0.098	B17
0.096	B18
0.179	B19
0.095	B20
0.14	B21

Absorbance (450 nm)	Binder
0.087	B22
0.569	B23
0.1	B24
0.138	B25
0.122	B26
0.085	B27
0.159	B28
0.14	B29
0.167	B30
0.121	B31
0.112	B32
0.088	B33
0.096	B34
0.074	B35
0.105	B36
0.091	B37
0.109	B38
0.139	B39
0.152	B40
0.109	B41

The binders below were run against recombinant cynomolgus monkey CD3ε/δ heterodimer (cynomolgus monkey) (UniProt Q95LI5) (assay: ELISA, coated CD3ε/δ).
Sequence of recombinant cynomolgus monkey CD3ε/δ heterodimer (cynomolgus monkey) (Q95LI5 22-117, stated change not applied, chain 1 of 2): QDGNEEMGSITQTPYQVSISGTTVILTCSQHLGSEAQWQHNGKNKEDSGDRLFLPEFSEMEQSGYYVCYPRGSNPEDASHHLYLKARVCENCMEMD
Sequence of recombinant cynomolgus monkey CD3ε/δ heterodimer (cynomolgus monkey) (Q95LI8 22-105, stated change not applied, chain 2 of 2, further chain): as the sequence (P04234 22-105, stated change not applied, chain 2 of 2, further chain) above, with I5V, N15K, I20V, S32T, D33N, I34N, T64A, S74N, V83L counted along it

Absorbance (450 nm)	Binder
0.071	B1
0.114	B2
0.128	B3
0.065	B4
0.067	B5
0.113	B6
0.076	B7
0.11	B8
0.113	B9
0.065	B10
0.095	B11
0.073	B12
0.083	B13
0.261	B14
0.099	B15
0.067	B16
0.075	B17
0.074	B18
0.179	B19
0.07	B20
0.108	B21

Absorbance (450 nm)	Binder
0.065	B22
0.532	B23
0.078	B24
0.134	B25
0.098	B26
0.068	B27
0.13	B28
0.089	B29
0.141	B30
0.101	B31
0.086	B32
0.064	B33
0.084	B34
0.099	B35
0.078	B36
0.072	B37
0.115	B38
0.114	B39
0.098	B40
0.075	B41
